Test results taken from the nanobody polyreactivity screen of Harvey et al. (2022).

experiment: yeast display, Sf9 membrane polyspecificity reagent, FACS + sequencing; frameworks hold sequencing errors
How it was run: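 Synthetic nanobody libraries on Saccharomyces cerevisiae BJ5465 were galactose-induced for 36–48 hours, stained 1 hour at 4 °C with 10% biotinylated, detergent-solubilized Sf9 membrane reagent and enriched on streptavidin microbeads. FACS then separated cells into low and high (top ~1%) gates by anti-HA (expression) and streptavidin (reagent binding) fluorescence. Genes were colony-PCR amplified, MiSeq 2 × 250 sequenced and CDR-length filtered. A clone's polyreactivity label is that of its gate of origin.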

Sequence	polyreactivity (PSR sort gate)
QVHLVESGGGLVQAGGSLRLSCAASGRTIDRNTMGWYRQAPVKERELVATITWSVGRTYYADSVKGRFTISRDNGKITVYVQMISMKPEDTGVYFCAAGIYAYKYESWGHGTQVTVSS	high polyreactivity
QVHLVESGGGLVQAGGSLRLSCAASGRTIHSYAMGWYRQAPGKERELVAAINNGGGTYYADSVKGRFTISRDNAKNTVYLQMNSRKPEDTAVYYCAAATRKRIGSYYYWGQGTQVTVSS	high polyreactivity
QVHLVESGGGLVQAGGSLRLSCAASGRTSIFNAMGWYRPAPGKERELVAAITARGASTYYADSVKGRFTISRDNAKNTVYLQKNSLKPDDTAVYYCAARDHAFRYYRNPFKGKYDYWGQGTQVTVSS	low polyreactivity
QVHLVESGGGLVQAGGSLRLSCAASGSIFAGNAMGLSRQAPGKERELVAGISRSGGSTNYADSVKGRFTISRDNAKNSVYLQMNSLKPEDTAVYYCNTDPYSSAWYNYDYWGLGTQVTVSS	low polyreactivity
QVHLVESGGGLVQAGGSLRLSCAASGSIFFVYAMGWYRQAPGKERELVAAISNDGSTNYADSVKGRFTISRDNAKNTVYLQMNSLKPEDTAVYYCAADPSLRQYAYFDYDYWGQGTQVTVSS	low polyreactivity
QVHLVESGGGLVQAGGSLRLSCAASGSIFGDNTMGWYRQAPGKERELVAAISQSSGTSTYYADSVKGRFTISRDNAKNTVYFQMNSLKPEDTAVYYCAKDPHGSDFGYWGQVTQVTVSS	low polyreactivity
QVHLVESGGGLVQAGGSLRLSCAASGSIFGSYAMGWYRQAPGKERELVAAITIADITYYADSVKGRFTISRDNAKNTVNLQMNSLKPEDTAVYYCNAYWGWRDSWYYYWGQGTQVTVSS	low polyreactivity
QVHLVESGGGLVQAGGSLRLSCAASGSIFIVYTMGWYRQAPGKERELVAAISSGGITDYADSVKGRFTISRDNAKNTVYLQMNSLKPEDTAVYYWGQGTQVTVSS	low polyreactivity
QVHLVESGGGLVQAGGSLRLSCAASGSIFRIYAMGWYRQAPGKERELVAAINAGGGRTYYADSVKGRFTISRDNAKNTVYLQMNSLKPEDNAVYFCAARHTEYRQESLYYWGQGTQVTVSS	low polyreactivity
QVHLVESGGGLVQAGGSLRLSCAASGSIFSVYTRGWYRQAPGKERELVAAISTGGGSTYYADSVKGRFTISRDNAKNTVYLQMNSLKPEDTAVYYCATDYGWAPSYWYDSCGQGTQVTVSS	low polyreactivity
QVHLVESGGGLVQAGGSLRLSCAASGSIFVLYAMGWYRQAPGKERELVAAISRGVGGTNYADSVKGRFTISRDNAKNTVYLQMNSLKPEDTAVYYCAADWLWAWHYYGAMDYWGQGTQVTVSS	high polyreactivity
QVHLVESGGGLVQAGGSLRLSCAASGSIFVSNAMGWYRQAPGKERELVAAIRGVDSTYYADSVKGRFTISRDNAKNTVYLQMNSLKPEDTAVYYCATPGPGYTRYYYWGQGTQVTVSS	high polyreactivity
QVHLVESGGGLVQAGGSLRLSCAASGSIFWYYGMGWYRQAPGKERELVASITSGGSTNYADSVKGRFSISRDNAKNTVYLQMNRLKPEDSAVYYCNTDDDSSSTGYYSWGQGTQVNVSS	low polyreactivity
QVHLVESGGGLVQAGGSLRLSCAASGSIFYPYAMGWYRQAPGKERELVAAISGRGGNTYYADSVKGRFTISRDNAKNTVYFQMNSLKPEDTAVYYCAADRYYWSLYGYDYWGQGTQVTVSS	high polyreactivity
QVHLVESGGGLVQAGGSLRLSCAASGSIIRYYAMGWYRQAPGKERELVAVITRGGSTYYADSVKGRFTISRDNAKSTVYLQMNSLKPEDTAVYYCAADYWPAGLDRGYWGQGTQVTVSS	low polyreactivity
QVHLVESGGGLVQAGGSLRLSCAASGSILLRYAMGWYRQAPGKERELVAAIRTIGASTYYADSVKGRFTISRDNAKNTVYLQMNSLKPEDTAVYYCNAYLAEVLPLGKGRLYDYWGLGTQVTVSS	low polyreactivity
QVHLVESGGGLVQAGGSLRLSCAASGSIYHNAMGWYRQAPGKERELVAAITSSGGRTYYADSVKGRFTISRDNAKNTVYLQMNSLKPEDTAVYYCNALAHQYHRYEFGYWGQGTQVTVSS	low polyreactivity
QVHLVESGGGLVQAGGSLRLSCAASGSNFRSYAMGWYRQAPWKERELDAAISSSGGRTYYADSVKGRFTISRDNAKNTVYLQMNSVKPEDNAVYYCAAYRGGGYKYDYWGQGTQVTVSS	high polyreactivity
QVHLVESGGGLVQAGGSLRLSCAASGSTFAVYAMGWYRQAPWKESELVAGISSRGGRTYYADSVKGRFTISRDNAKNTVYLQMNSLKPEDTAVYYCNVVYTYWRYYRWREYDYWGQGTQVTVSS	high polyreactivity
QVHLVESGGGLVQAGGSLRLSCAASGSTFAYNAMGWYRTAPGKERELVAAISSSGGRTYYADSVKGRFTLSRDNAKNTVYLQMISLKPEDTAVYYCNAAYYYTYGYWGQGTEVTVSS	high polyreactivity
QVHLVESGGGLVQAGGSLRLSCAASGSTFFYAMGWYRQAPRKERELVAAISWIDSLTYYADSVKGRFTISRDNEKITVYLQMNILKAEDTAFYYCAAEGQNEGYDYWGQGSQVTVSS	high polyreactivity
QVHLVESGGGLVQAGGSLRLSCAASGSTFGSNAMGWYRQAPGKERELVAAITNGGSTNYADSVKGRFTISRDNAKNTVYLQMNSLKPDDTAVYYCNGDPQQSKLWTYFFGFPGYYWGQGTQVTVSS	low polyreactivity

Sequence	polyreactivity (PSR sort gate)
QVHLVESGGGLVQAGGSLRLSCAASGSTFILNAMGWYRQAPGKERELVATISSSDTSTYYADSVKGRFTISRDNAKNTVYLQMNSLKPEDTAVYYCNADYYTTSYLQRVYHYGVEYDYWGQGTQVTVSS	low polyreactivity
QVHLVESGGGLVQAGGSLRLSCAASGSTFISYAMGWYRQAPGKERELVAAISRNGGRTYYADSVKGRFTISRDNAKNTVYLQMNSLKPEDTAVYYCAAAYNSYRFDYWGQGTQVTVSS	high polyreactivity
QVHLVESGGGLVQAGGSLRLSCAASGSTFKPYTMGWYRQAPGKERELVAAITSRGTSTYYADSVKGRFKISRDNAKNTVYLQMNSLKPEDTEVYYCAARRPGTFSYGYWGQGTQVTVSS	high polyreactivity
QVHLVESGGGLVQAGGSLRLSCAASGSTFKRYAMGWYRQAPGKERELVASISQRGGTTYYADSVKGRFTISRDNAKNTVYLQMNSLKPEDTAVYYCANGFGWTRTIYDYWGQGTQVTVSS	high polyreactivity
QVHLVESGGGLVQAGGSLRLSCAASGSTFPANAMGRYRQAPGKERELVAAITSGGSTNYADSVKGRFTISRDNAKNTVYLQMNSLKPEDTAVYYCADESYQAHSFYVYYGYDYWGQGTQVTVSS	low polyreactivity
QVHLVESGGGLVQAGGSLRLSCAASGSTFPYYDMGWYRQAPGKERELVAAITYNGGNTYYADSVKGRFTISRDNAKNTVYLQMNSLKPEDTAVYYCAADGTLARLYYWATGDEDGYWGQGTQVTVSS	low polyreactivity
QVHLVESGGGLVQAGGSLRLSCAASGSTFQSNAMGWYRQAPGKERELVATITQSGATTYYADSVKGRFTISRDNAKNTVYLQMNSLKPEDTAVYYCNVDTYQKRWFWLDLDGGYWGQGTQVTVSS	low polyreactivity
QVHLVESGGGLVQAGGSLRLSCAASGSTFQTNAMGWSRQAPGKERELVAAISRTGGRSNYADSVKGRFTISRDNAKNTVYLQMHSLKPEDTAVYDCAAGVPKTGQAGYDYWGQGTQVTVSS	high polyreactivity
QVHLVESGGGLVQAGGSLRLSCAASGSTFRYYAMGWYRQAPGKERELVAAIRDSGGSTYYADSVKGRFTISRDNAKNTVYLQMNSLKPEDTAVYYCARRAYRWYSAYDSWGQGTQVTVSS	high polyreactivity
QVHLVESGGGLVQAGGSLRLSCAASGSTFSGYTMGWYRQAPGKEREFVAAISSRGGSTYYADSVKGRFTISRDNAKNSVYLQMNSVNPEDTAVYYCAAKVWARVDGRQFRLEYWGQGTQVTVSS	high polyreactivity
QVHLVESGGGLVQAGGSLRLSCAASGSTFVGNAMGWNRKAPGKERELVATISNSGGRTYYADSVKGPFTISRDNAKNTVYLEMNSLKPEDTAVYYCAADHPAFGPVYSFDYWGQGTQVTVSS	low polyreactivity
QVHLVESGGGLVQAGGSLRLSCAASGSTFVTYTMGWYRQAPGKERELVATITASGGSTYYADSVKGRFTISRDNEKNTVYLQMNSLKPEYTAVYYCAKRRSPVERYDFWGQGTQVTVSS	low polyreactivity
QVHLVESGGGLVQAGGSLRLSCAASGSTFYLYAMGWYRQATGKERELDASISRSGITTYSDSVKGRFTITRDNAKNNVYLQLNSRNPEDTADYYCAVRYYSASYWYGYDYWGLGTQVTVSS	high polyreactivity
QVHLVESGGGLVQAGGSLRLSCAASGSTFYNNAMGLYRQAPGKERELVASISLSAGSTYYADSVKGRFTISRDNAKNTVYLQMNSMKPEDTAVYYCAAESVAILVLVYPKGYGYWGQGTQVTVSS	low polyreactivity
QVHLVESGGGLVQAGGSLRLSCAASGSTIVDYHMAWYRQAPGKERELVASISSSGGSTYYADSVKGRFTISRDNAKNTVYLQMNSLKPEDTAVYYCAADTWGFWYWGPLFSKYGYWGQGTQVTVSS	low polyreactivity
QVHLVESGGGLVQAGGSLRLSCAASGSTLVIYAMGWYRQAPGKERELVAVITWSGGSTYYADSVKGRFTISRDNAKNTVYLQMNSLKPEDTAVYYCAKRPIVRQRSYYYWGQGTQVTVSS	low polyreactivity
QVHLVESGGGLVQAGGSLRLSCAASGSTLVYNDMGWYRQAPGKEREFVAAIRSNDGSTYYADSVKGRFTISRDNAKNTVYLQMNSLKPEDTAVYYCAAERGYPKFGYWGQGTQVTVSS	low polyreactivity
QVHLVESGGGLVQAGGSLRLSCAASGSTLYRYAMGWYRQAPGKERELVATITRSGGSTYYADSVKGRFTISRDNAKNTVYLQINSLKPEDTAVYYCDAYRKVGGFSRGDYWGQGTKVTVSS	high polyreactivity
QVHLVESGGGLVQAGGSLRLSCAASGSTSDNTMGWYRQAPGKERELVAAISQRGVSTYYADSVKGRFTISRDNAKNTVYLQMNSLKPEDTAVYYCNALLSAKFDYWGQGTQVTVSS	low polyreactivity
QVHLVESGGGLVQAGGSLRLSCAASGYIFGYYAMGWYRQAPGKERELVAAISQGGGDTYYADSVKGRFTISRDNAKYTVYLQMNSLKPEDTAVYYCAADYEQSYVLTGTFKYDYWGQGTQVTVSS	low polyreactivity
QVHLVESGGGLVQAGGSLRLSCAASGYIFRWYAMGWYRQAPGKEREFVASISKRGGSTYYADSVKGRFTISRDNAKNTVYLQMNSLKPEDTAVYYCARTPSPLLYSYDYWGQGTQVTVSS	high polyreactivity
